Source: patent publication US6509447B1, “G protein chimeras and methods of screening compounds” (Glaxo Welcome Inc., priority 1997, dated 2003)

What was measured:
serotonin 5HT1A receptor = target: T1, serotonin 5HT1A receptor (Homo sapiens, UniProt P08908); assay: Reverse halo assay for FUS1-HIS3 expression, MMY9 cells, 5-HT1A; type: cell-based; conditions: MMY9 cells with pRS314-GPA1 and 5-HT1A receptor, 40 nmol serotonin
T1 construct: expressed in transfected cells; host or cells: Saccharomyces cerevisiae strains MMY9 and MMY11, plasmid pDT-PGK-5-HT1A
T1 sequence (P08908 1-422): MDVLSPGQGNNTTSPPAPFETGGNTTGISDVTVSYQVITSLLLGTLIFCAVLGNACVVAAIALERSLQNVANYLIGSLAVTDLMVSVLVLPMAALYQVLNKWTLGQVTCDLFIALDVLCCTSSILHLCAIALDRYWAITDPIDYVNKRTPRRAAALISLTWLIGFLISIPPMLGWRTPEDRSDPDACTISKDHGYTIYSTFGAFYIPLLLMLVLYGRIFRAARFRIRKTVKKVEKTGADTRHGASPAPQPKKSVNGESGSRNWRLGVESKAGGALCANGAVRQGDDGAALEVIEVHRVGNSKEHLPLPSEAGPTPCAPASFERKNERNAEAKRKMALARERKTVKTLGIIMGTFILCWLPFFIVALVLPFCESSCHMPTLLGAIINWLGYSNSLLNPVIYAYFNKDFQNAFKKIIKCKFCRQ
Method: (§1) Assay for FUS1-HIS3 Expression. Reverse halo assays were carried out by growing MMY9 cells to early stationary phase (OD600≈4) in liquid SC-glucose (2%) medium lacking tryptophan and uracil. A uniform layer of cells (5×10^7) was plated to 22.5 cm by 22.5 cm bioassay dishes (Nunc) in 100 ml SC-glucose agar (1%) equilibrated to 50° C. This medium lacked tryptophan, uracil and histidine, and was supplemented with 10 mM 3-aminotriazole, and buffered to pH 7.0 with 0.1M sodium phosphate. Antibiotic discs were placed on the solidified agar, and a volume of agonist solution (1-5 μl) was applied to each disc. Plates were incubated at 30° C. for 3 days.
(§2) The four receptors were: the melatonin ML1B receptor, the serotonin 5HT1A receptor, the somatostatin SST2 receptor and the purinergic nucleotide receptor, P2Y2. […] Activation of the pheromone response pathway was monitored with two integrated reporter genes: […] allowing a growth readout in medium lacking histidine, and FUS1-lacZ allowing a β-galactosidase readout. […] Agonist-dependent activation of FUS1-HIS3 was determined by reverse halo assay in which agonists were applied to the filter discs in the arrangement shown in panel A, in quantities as follows: 3 nmol of somatostatin-14 (S-14); 40 nmol of melatonin (Mel); 3 nmol of α-factor; 100 nmol of UTP; 40 nmol of serotonin (5-HT). […]

melatonin ML1B receptor = target: T2, melatonin ML1B receptor (Homo sapiens, UniProt P49286); assay: Reverse halo assay for FUS1-HIS3 expression, MMY9 cells, ML1B; type: cell-based; conditions: MMY9 cells with pRS314-GPA1 and ML1B receptor, 40 nmol melatonin
T2 construct: expressed in transfected cells; host or cells: Saccharomyces cerevisiae strains MMY9 and MMY11, plasmid pDT-PGK-ML1B
T2 sequence (P49286 1-362): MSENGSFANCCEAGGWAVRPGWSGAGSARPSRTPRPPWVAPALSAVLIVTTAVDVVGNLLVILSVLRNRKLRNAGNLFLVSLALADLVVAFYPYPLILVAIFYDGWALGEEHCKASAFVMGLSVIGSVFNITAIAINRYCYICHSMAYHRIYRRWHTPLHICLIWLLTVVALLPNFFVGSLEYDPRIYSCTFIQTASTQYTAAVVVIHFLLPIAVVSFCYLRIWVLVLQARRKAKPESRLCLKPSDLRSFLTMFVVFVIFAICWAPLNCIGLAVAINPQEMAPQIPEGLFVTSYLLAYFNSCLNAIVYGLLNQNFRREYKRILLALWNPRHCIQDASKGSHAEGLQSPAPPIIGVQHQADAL
Method: as §1, §2

[1] = test system: purinergic nucleotide P2Y2 receptor; assay: CPRG assay, MMY11 cells expressing P2Y2 receptor plus Gα subunit; type: cell-based, human; design: key: weak activation insufficient to carry out curve-fitting was detected; NC: no coupling was detected
Method: Assay for combined FUS1-lacZ and FUS1-HIS3 Expression. In vivo assays of reporter gene induction (CPRG assays) were carried out by suspending cells to 0.02 OD600 in 200 μl SC-glucose (2%) lacking tryptophan, uracil and histidine. This medium was supplemented with agonists, and additionally 10 mM 3-aminotriazole and the β-galactosidase (lacZ) substrate chlorophenolred-β-D-galactopyranoside (CPRG; Boehringer) to a concentration of 0.1 mg/ml. To visualise the colour change reaction, the medium was buffered to pH 7 with 0.1 M sodium phosphate. The assay was conducted in a 96-well microtitre plate format. Plates were incubated for 24 hours without agitation, and absorbance at 570 nm was determined using a Victor microtitre plate reader (Wallac). EC50 values (+/−standard error) were estimated by curve-fitting, using the Robosage software package.
MMY11 was used in an experiment in which cells were transformed with pairs of plasmids as before, one to express a Gα subunit and the other a receptor expression construct. […] Where pheromone response pathway activation was detected, the agonist concentration required to yield a half-maximal response (EC50+/−standard error; all values in nM except where otherwise indicated) was determined by curve-fitting, and is shown in Table 4A. Where no coupling was detected, this is also indicated (NC).

purinergic nucleotide P2Y2 receptor, sequence (P41231 1-347 limits assumed): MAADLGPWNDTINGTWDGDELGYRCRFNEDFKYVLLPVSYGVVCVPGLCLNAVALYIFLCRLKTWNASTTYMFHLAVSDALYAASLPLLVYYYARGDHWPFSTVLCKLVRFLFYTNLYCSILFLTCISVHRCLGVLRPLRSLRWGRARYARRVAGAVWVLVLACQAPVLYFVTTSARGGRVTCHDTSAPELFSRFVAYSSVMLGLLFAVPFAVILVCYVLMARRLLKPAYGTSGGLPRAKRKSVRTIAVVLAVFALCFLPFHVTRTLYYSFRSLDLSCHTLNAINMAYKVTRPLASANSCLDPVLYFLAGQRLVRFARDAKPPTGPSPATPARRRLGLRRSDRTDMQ

B1: Gpa1p: endogenous yeast Gα subunit, product of the GPA1 gene (protein, UniProt P08539 2-472, looked up)
Guanine nucleotide-binding …: GCTVSTQTIGDESDPFLQNKRANDVIEQSLQLEKQRDKNEIKLLLLGAGESGKSTVLKQLKLLHQGGFSHQERLQYAQVIWADAIQSMKILIIQARKLGIQLDCDDPINNKDLFACKRILLKAKALDYINASVAGGSDFLNDYVLKYSERYETRRRVQSTGRAKAAFDEDGNISNVKSDTDRDAETVTQNEDADRNNSSRINLQDICKDLNQEGDDQMFVRKTSREIQGQNRRNLIHEDIAKAIKQLWNNDKGIKQCFARSNEFQLEGSAAYYFDNIEKFASPNYVCTDEDILKGRIKTTGITETEFNIGSSKFKVLDAGGQRSERKKWIHCFEGITAVLFVLAMSEYDQMLFEDERVNRMHESIMLFDTLLNSKWFKDTPFILFLNKIDLFEEKVKSMPIRKYFPDYQGRVGDAEAGLKYFEKIFLSLNKTNKPIYVKRTCATDTQTMKFVLSAVTDLIIQQNLKKIGII
With B1 the “agonist-dependent activation of FUS1-HIS3 (halo of cell growth)” value (serotonin 5HT1A receptor) was “did not activate FUS1-HIS3 in response to the agonist serotonin”, the “agonist-dependent activation of FUS1-HIS3 (halo of cell growth)” value (melatonin ML1B receptor) was “activated FUS1-HIS3 in response to melatonin” and the “coupling class where no EC50 could be fitted” value [1] was “weak”.
